# Results as given in the nanobody polyreactivity screen of Harvey et al. (2022).
# Experiment: yeast display, Sf9 membrane polyspecificity reagent, FACS + sequencing; frameworks hold sequencing errors
# Procedure, shortened: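 In a synthetic yeast display library (Saccharomyces cerevisiae BJ5465), nanobody expression was induced with galactose for 36–48 hours. FACS gates were set low and high (top ~1%) using anti-HA fluorescence for expression and streptavidin fluorescence for binding of the Sf9 membrane reagent. Each polyreactivity label is drawn from the gate of origin.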
row,Sequence,polyreactivity (PSR sort gate)
1,QVQLVESGGGLVQAGGSLRLSCAASGFTFWQYTMGWYRQAPGKERELVAAITSSGGSTYYADSVKGRFTISRDNAKNTVYLQMNSLKPEDTAVYYCAADGWGYSFQWQDHDYWGQGTQVTVSS,low polyreactivity
2,QVQLVESGGGLVQAGGSLRLSCAASGFTFWRYAMAWYRQAPWKERDLVAAISRTGGRTYYADSVKGRFTISRDNAKNTVYLQMNSLKPEDTAVDYCAAVKYETYRYNYDYWGQGTQVTVSS,high polyreactivity
3,QVQLVESGGGLVQAGGSLRLSCAASGFTFWRYTMGWYRQAPGKERELVAAINWSGGRTYYADSVKGRFTISRDNAKNTVYLQMNSLKPEDTAVYYCATGYSTSVGGSQGDSWGQGTQVTVSS,high polyreactivity
4,QVQLVESGGGLVQAGGSLRLSCAASGFTFWRYTMGWYRQAPGKERELVATIRRGTSTNYADSVKGRFTISRDNAKNTVYLQMNSLKPEDTAVYYCAADPWRYYVEYDYWGQGTQVTVSS,high polyreactivity
5,QVQLVESGGGLVQAGGSLRLSCAASGFTFWTYAMGWYRQAPGKERELVAAIDSGGSTYYADSVKGRFTISRDNAKNTVYLQMHSLKPEDTAVYYCNAGPSVTSGYDYDYWGQGTQVTVSS,low polyreactivity
6,QVQLVESGGGLVQAGGSLRLSCAASGFTFWTYPMGWYIQAPGKERELVAAIDSGGSTYYADSVKGRFTISRDNAKNTVYLQMNSLKPEDTAVYYCNAGPSVTSGYDYDYRGQGTQVTVSS,low polyreactivity
7,QVQLVESGGGLVQAGGSLRLSCAASGFTFWYNAMGWYRQAPGKERELVAAISKSGGSTYYADSVKGRFTISRDNAKNTVYLQMNILKPEDTAVYYCAARLPYNRYNYWGQGTQVTVSS,high polyreactivity
8,QVQLVESGGGLVQAGGSLRLSCAASGFTFWYYAMGWYRQAPGKERELVADISTRGGSTYYADSVKGRFTISRDNAKNTVYLQMNSLKPEDTAVYYCAAKYARNLAGDDPYDYWGQGTQVTVSS,high polyreactivity
9,QVQLVESGGGLVQAGGSLRLSCAASGFTFWYYAMGWYRQAPGKERELVARITSRGADTYADSVKGRFTISRDNAKNTVYLQMNSLKPEDTAVYDCNADIISVSVYYFIVEYDYWGQGTQVTVSS,low polyreactivity
10,QVQLVESGGGLVQAGGSLRLSCAASGFTFWYYAMGWYRQAPGKERELVATITSGGRTSYADSVKGRFTISRDNAKNTVYLQMNSLKPEDTAVYYCAAVARYTPGYGYWGQGTQVTVSS,high polyreactivity
11,QVQLVESGGGLVQAGGSLRLSCAASGFTFYAYAMGWYRQAPGKERELVAAISRTGGRTYYADSVKGRFTISRDNAKNTVYLQMNSLKPEDTAVYYCNRAGLHSTGYDYWGQGTQVTVSS,high polyreactivity
12,QVQLVESGGGLVQAGGSLRLSCAASGFTFYAYAMGWYRQAPGKERELVAAITWSGGRTYYADSVKGRFTISRDNAKNTVYLQMNSLKPEDTAVYYCAKRYWGQARYHTGHDYWGQGTQVTVSS,high polyreactivity
13,QVQLVESGGGLVQAGGSLRLSCAASGFTFYDKAMGWNRQAPGKERELVAAINCRSGSTYYADSVKGRFTISRDTAKNTVYLQMNSLKPEDTAVYYCASGLVFHYYAPKSYYLRYDYWGQGTQVTVSS,low polyreactivity
14,QVQLVESGGGLVQAGGSLRLSCAASGFTFYDYVMGWYRQAPGKERELVASISARTGSTYYADSVKGRFTISRDNAKNTVYLQMNSLQPEDTAVYYCAADDGQYYRTEYDYWGQGTQVTVSS,low polyreactivity
15,QVQLVESGGGLVQAGGSLRLSCAASGFTFYGNAMGWYRQAPGKERELVASISTYYADSVKGRFTISRDNAKNTVYLQMNSLKPEDTAVYYCAATHYDRTFYVIYDYWGQGTQVTVSS,low polyreactivity
16,QVQLVESGGGLVQAGGSLRLSCAASGFTFYGYAMGRYRQAPGKERELVAAITFRGDRTYYADSVKGRFTISRDNAKNTVYLQMNSLKPEDTAVYYCAAERPSGWYSDLSLYIGRRGYWGQGTQVTVSS,low polyreactivity
17,QVQLVESGGGLVQAGGSLRLSCAASGFTFYGYGMGWYRQAPGKERELVAGISSGGGSTFYADSVKGRFTISRDNAKNTVYLQMNSLKPEDTAVYYCAALHYGGYFSYYPYYYWGQGTQVTVSS,low polyreactivity
18,QVQLVESGGGLVQAGGSLRLSCAASGFTFYHNAMGWYRQAPGKERELVAAISGGGDSTYYADSVKGRFTISRDNAKNTVYLQMNSLKPEDTAVYYCATRRYPEVVNGEYGYWGQGTQVTVSS,low polyreactivity
19,QVQLVESGGGLVQAGGSLRLSCAASGFTFYHYAMGWYRPAPGKERELVAAITWSGGDTYYADSEKGRFTSSRDNAKNTVYLQMNSLKPEDTAVYYCNADDPPGAPYYDSFDYRGDYWGQGTQRTVSS,low polyreactivity
20,QVQLVESGGGLVQAGGSLRLSCAASGFTFYHYAMGWYRQAPGTERELVASITRSGASTYYADSVKGRFTSSRDNAKNTVYLQMNSLKPEDTAVYYCNKVRYTSSIWTYYYWGQGTQVTVSS,high polyreactivity
21,QVQLVESGGGLVQAGGSLRLSCAASGFTFYKNTMGWYRQAPGKERELVAAISSSGSSTYYADSVKGRFTISRDNAKNTVYLQMNSLKPEDTAVYYCAAGRFAYHDDYWGQGTQVTVSS,high polyreactivity
22,QVQLVESGGGLVQAGGSLRLSCAASGFTFYKNTMGWYRQAPGKVRELVAAISSSGSSTYYADSVKGRFTISRDNAKNTVYLQMNSLKPEDTAVYYCAAGRFAYHDDYWGQGTHVTVSS,high polyreactivity

row,Sequence,polyreactivity (PSR sort gate)
1,QVQLVESGGGLVQAGGSLRLSCAASGFTFYKYAMGGYRQEPGKERELVATITISGITNYADSVKGRFTISRDNAKNTVYLQMNSLKPEDTAVYYCATVGPWPGEYDYWGQGTQVTVSS,low polyreactivity
2,QVQLVESGGGLVQAGGSLRLSCAASGFTFYKYTMGWYRQAPGKERELVAAISARGGSTYYADSVKGRFTISRDNAKNTVYLQMNSLKPEDTAVYYCAADYWRTYVLGYDYWGQGTQVTVSS,high polyreactivity
3,QVQLVESGGGLVQAGGSLRLSCAASGFTFYKYVMGWYRQAPGKERELVAAITTSGGSTYYADSVKGRFTISRDNAKNTVYLQMNSLKPEDTAVYYCNARSLHTSEGDYWGQGTQVTVSS,low polyreactivity
4,QVQLVESGGGLVQAGGSLRLSCAASGFTFYLYALGWYRQAPGKERELVAAITYSGGSTYYADSVKGRFTISRDNAKNTVYLQMNSLKPEDTAVYYCAADARGKVYWGQGTQVTVSS,high polyreactivity
5,QVQLVESGGGLVQAGGSLRLSCAASGFTFYLYAMGWYRQAPGKEREFVASISYRGTSTYYADSVKGRCTISRDNAKNTVYLQMNSLKPEDTAFYYCAARPSYYRTGYGYWGQGTQVTVSS,high polyreactivity
6,QVQLVESGGGLVQAGGSLRLSCAASGFTFYLYSMGWYRQAPGKERELVATITSDGGTNYADSVKGRFSISRDNAKNTVYLQMNSLTPEDTAVYYCNAASRRGSRKQAKYDYWGQGTQVTVSA,low polyreactivity
7,QVQLVESGGGLVQAGGSLRLSCAASGFTFYPNTMGWYRQAPGKERELVAAISSSGGRTYYSDSVKGRFTISRDNAKNTVYLQMNSLKPEDTAVYYCNAAKWLTSGGLDYWGIGTQVTVSS,high polyreactivity
8,QVQLVESGGGLVQAGGSLRLSCAASGFTFYPYAMGWYRQAPGKERELVAAIRISGGSTYYADSVKGRFTISRDTAKNTVYLQMNSLKPEDTAVYYCAAKYPYYSSYAYGYWGQGTQVTVSS,high polyreactivity
9,QVQLVESGGGLVQAGGSLRLSCAASGFTFYPYAMGWYRQAPGKERELVAGITRGGSTNYADSVKGRFTISRDNAKNTVYLQMNSLKPEDTAVYYCAAKYGPYFRRLDYWGQGTQVTVSS,high polyreactivity
10,QVQLVESGGGLVQAGGSLRLSCAASGFTFYPYAMGWYRQAPGKERELVASISWSGGSTYYADSVKGRFTISRDNAKNTVYFQMNSLKPEDTAVYYCNAEYWLPYYPDYDFWGQGTQVTVSS,low polyreactivity
11,QVQLVESGGGLVQAGGSLRLSCAASGFTFYPYAMGWYRQAPGKERELVATISSGGTTNYADSVKGRFTISRDNAKNTVYLQMNSLKPEDTAVYYCAADYIRLFGPFDYWGQGTQVTVSS,low polyreactivity
12,QVQLVESGGGLVQAGGSLRLSCAASGFTFYPYARGWYRQAPGKERELVAAISNGDSTHYADSVKGRFTISRDNAKNTVYLQMNSLKPQDTAVYYCNAYTRYPFYFVTSKYDYWGQGNQVTVSS,low polyreactivity
13,QVQLVESGGGLVQAGGSLRLSCAASGFTFYPYTMGWYRQAPGKERELVAAISSSGGSTYYADSVKGRFTISRDNAMNTVYLQMNSLKPEDTAVYYCATRSWGPYYYGYNHWGQGSQVTVSS,high polyreactivity
14,QVQLVESGGGLVQAGGSLRLSCAASGFTFYQYAMGWYRQAPGKERELVAAISSSGTSTYYADSVKGRFTISRDNAKNTVYLQMNSLKPEDTAVYYCAARRYKLFYWGQGTQVTVSS,low polyreactivity
15,QVQLVESGGGLVQAGGSLRLSCAASGFTFYRNAMGWYRQAPGKEWELVAGITRSGGSTYYADSVKGRFTISRDNAKNTVYLQMNSLKPEDTAVYYCNKAYGGDKYSGTYDYWGQGTQVTVSS,high polyreactivity
16,QVQLVESGGGLVQAGGSLRLSCAASGFTFYRNAMGWYRQAPRKERDLVAAISDSGGRTYYADSVKGRFTISRDNAMNTVYLQMNSLIPEDTAVYYCAADTVIWWVEYEYWGQGTQVTVSS,high polyreactivity
17,QVQLVESGGGLVQAGGSLRLSCAASGFTFYRYAMGWYRQAPGKERELVAAITGGGSTYYADSVKGRFTISRDNAKNTVYLQMNSLKPEDTAVYYCNADIRAYTVLTGGYIYDYWGQGTQVTVSS,high polyreactivity
18,QVQLVESGGGLVQAGGSLRLSCAASGFTFYRYAMGWYRQAPGKERELVAAITKSSGRTYYADSVKGRFTISRDNAQITVYLQINSLKPEDTAVYYCNAYYVALPPNMDYWGQGTQVTVSS,high polyreactivity
19,QVQLVESGGGLVQAGGSLRLSCAASGFTFYRYAMGWYRQAPGKERELVAAITWSGGSTYYADSVKGRFTISRDNAKNTVYLQMNSLKPVDTAVYYCAADIYDGGFDYWGQGTQVTVSS,low polyreactivity
20,QVQLVESGGGLVQAGGSLRLSCAASGFTFYRYAMGWYRQAPGKERELVASIRWGGGSTYYADSVKGRFTISRDNAKNTFYLEMNSLKPEDTAVYYCAAYFGYTVGRYNYWGQGTQVTVSS,high polyreactivity
21,QVQLVESGGGLVQAGGSLRLSCAASGFTFYRYAMGWYRQAPGKERELVASISWRGGNTYYADSVKGRFTISRDNAKNTVYLQMNSLKPEDTAVYYCAAGRSRIPSLLDYWGQGTQVTVSS,high polyreactivity
